Data on eight variants can be found in FireProtDB (doi:10.1128/aem.02129-17).

The chains are these.
B1: Lipase, P19515 (parent)
chain: MVLKQRANYLGFLIVFFTAFLVEAVPIKRQSNSTVDSLPPLIPSRTSAPSSSPSTTDPEAPAMSRNGPLPSDVETKYGMALNATSYPDSVVQAMSIDGGIRAATSQEINELTYYTTLSANSYCRTVIPGATWDCIHCDATEDLKIIKTWSTLIYDTNAMVARGDSEKTIYIVFRGSSSIRNWIADLTFVPVSYPPVSGTKVHKGFLDSYGEVQNELVATVLDQFKQYPSYKVAVTGHSLGGATALLCALDLYQREEGLSSSNLFLYTQGQPRVGDPAFANYVVSTGIPYRRTVNERDIVPHLPPAAFGFLHAGEEYWITDNSPETVQVCTSDLETSDCSNSIVPFTSVLDHLSYFGINTGLCT

The data set covers variants of B1. The following applies: Rhizomucor miehei; pH 8; Thermal; DSF; sodium phosphate buffer 50 mM; structure 6QPR; whole UniProt chain shown.

Broadly, the Tm is the temperature at which the thermal transition is half complete. Regarding MVLKQRANYLGFLIVFFTAFLVEAVPIKRQSNSTVDSLPPLIPSRTSAPSSSPSTTDPEAPAMSRNGPLPSDVETKYGMALNATSYPDSVVQAMSIDGGIRAATSQEINELKYYTILSANSYCRTVIPGATWDCIHCDATEDLKIIKTWSTLIYDTNAMVARGDSEKTIYIVFRGSSSIRNWIADLTFVPVSYPPVSGTKVHKGFLDSYGEVQNELVATVLDQFKQYPSYKVAVTGHSLGGATALLCALDLYQREEGLSSSNLFLYTQGQPRVGDPAFANYVCSTGIPYRRTVNERDIVPHLPPAAFGFLHAGEEYWITDNSPITVQVCTSCLETSDCSNSIVPFTSVLDHLSYFGINTGLCT [T112K T116I E324I V283C D332C], the Tm was determined as 72.3 °C and the “change of melting temperature, mutant - wild type (higher = more stable)” value (shortened to “change of melting temperature, mutant”) was 13.6 °C.

As to MVLKQRANYLGFLIVFFTAFLVEAVPIKRQSNSTVDSLPPLIPSRTSAPSSSPSTTDPEAPAMSRNGPLPSDVETKYGMALNATSYPDSVVQAMSIDGGIRAATSQEINELKYYTILSANSYCRTVIPGATWDCIHCDATEDLKIIKTWSTLIYDTNAMVARGDSEKTIYIVFRGSSSIRNWIADLTFVPVSYPPVSGTKVHKGFLDSYGEVQNELVATVLDQFKQYPSYKVAVTGHSLGGATALLCALDLYQREEGLSSSNLFLYTQGQPRVGDPAFANYVVSTGIPYRRTVNERDIVPHLPPAAFGFLHAGEEYWITDNSPETVQVCTSDLETSDCSNSIVPFTSVLDHLSYFGINTGLCT [T112K T116I], the midpoint of thermal melting (Tm) came to 64 °C and the “change of melting temperature, mutant” value came to 5.3 °C.

Consider MVLKQRANYLGFLIVFFTAFLVEAVPIKRQSNSTVDSLPPLIPSRTSAPSSSPSTTDPEAPAMSRNGPLPSDVETKYGMALNATSYPDSVVQAMSIDGGIRAATSQEINELKYYTTLSANSYCRTVIPGATWDCIHCDATEDLKIIKTWSTLIYDTNAMVARGDSEKTIYIVFRGSSSIRNWIADLTFVPVSYPPVSGTKVHKGFLDSYGEVQNELVATVLDQFKQYPSYKVAVTGHSLGGATALLCALDLYQREEGLSSSNLFLYTQGQPRVGDPAFANYVVSTGIPYRRTVNERDIVPHLPPAAFGFLHAGEEYWITDNSPETVQVCTSDLETSDCSNSIVPFTSVLDHLSYFGINTGLCT [T112K], for which the melting temperature (Tm) was determined as 63.2 °C and the “change of melting temperature, mutant” value worked out at 4.5 °C.

For MVLKQRANYLGFLIVFFTAFLVEAVPIKRQSNSTVDSLPPLIPSRTSAPSSSPSTTDPEAPAMSRNGPLPSDVETKYGMALNATSYPDSVVQAMSIDGGIRAATSQEINELWYYTTLSANSYCRTVIPGATWDCIHCDATEDLKIIKTWSTLIYDTNAMVARGDSEKTIYIVFRGSSSIRNWIADLTFVPVSYPPVSGTKVHKGFLDSYGEVQNELVATVLDQFKQYPSYKVAVTGHSLGGATALLCALDLYQREEGLSSSNLFLYTQGQPRVGDPAFANYVVSTGIPYRRTVNERDIVPHLPPAAFGFLHAGEEYWITDNSPETVQVCTSDLETSDCSNSIVPFTSVLDHLSYFGINTGLCT [T112W], the midpoint of thermal melting (Tm) is 57.8 °C and the “change of melting temperature, mutant” value is -2.2 °C.

As to MVLKQRANYLGFLIVFFTAFLVEAVPIKRQSNSTVDSLPPLIPSRTSAPSSSPSTTDPEAPAMSRNGPLPSDVETKYGMALNATSYPDSVVQAMSIDGGIRAATSQEINELIYYTTLSANSYCRTVIPGATWDCIHCDATEDLKIIKTWSTLIYDTNAMVARGDSEKTIYIVFRGSSSIRNWIADLTFVPVSYPPVSGTKVHKGFLDSYGEVQNELVATVLDQFKQYPSYKVAVTGHSLGGATALLCALDLYQREEGLSSSNLFLYTQGQPRVGDPAFANYVVSTGIPYRRTVNERDIVPHLPPAAFGFLHAGEEYWITDNSPETVQVCTSDLETSDCSNSIVPFTSVLDHLSYFGINTGLCT [T112I], the Tm is 58.1 °C and the “change of melting temperature, mutant” value was -3 °C.

With MVLKQRANYLGFLIVFFTAFLVEAVPIKRQSNSTVDSLPPLIPSRTSAPSSSPSTTDPEAPAMSRNGPLPSDVETKYGMALNATSYPDSVVQAMSIDGGIRAATSQEINELKYYTTLSANSYCRTVIPGATWDCIHCDATEDLKIIKTWSTLIYDTNAMVARGDSEKTIYIVFRGSSSIRNWIADLTFVPVSYPPVSGTKVHKGFLDSYGEVQNELVATVLDQFKQYPSYKVAVTGHSLGGATALLCALDLYQREEGLSSSNLFLYTQGQPRVGDPAFANYVVSTGIPYRRTVNERDIVPHLPPAAFGFLHAGEEYWITDNSPITVQVCTSDLETSDCSNSIVPFTSVLDHLSYFGINTGLCT [T112K E324I], the Tm is 66.7 °C and the “change of melting temperature, mutant” value came to 8 °C.

Take MVLKQRANYLGFLIVFFTAFLVEAVPIKRQSNSTVDSLPPLIPSRTSAPSSSPSTTDPEAPAMSRNGPLPSDVETKYGMALNATSYPDSVVQAMSIDGGIRAATSQEINELKYYTILSANSYCRTVIPGATWDCIHCDATEDLKIIKTWCTLIYDTCAMVARGDSEKTIYIVFRGSSSIRNWIADLTFVPVSYPPVSGTKVHKGFLDSYGEVQNELVATVLDQFKQYPSYKVAVTGHSLGGATALLCALDLYQREEGLSSSNLFLYTQGQPRVGDPAFANYVVSTGIPYRRTVNERDIVPHLPPAAFGFLHAGEEYWITDNSPITVQVCTSDLETSDCSNSIVPFTSVLDHLSYFGINTGLCT [T112K T116I E324I S150C N157C]: the Tm worked out at 69.3 °C and the “change of melting temperature, mutant” value was 10.6 °C.

Take MVLKQRANYLGFLIVFFTAFLVEAVPIKRQSNSTVDSLPPLIPSRTSAPSSSPSTTDPEAPAMSRNGPLPSDVETKYGMALNATSYPDSVVQAMSIDGGIRAATSQEINELKYYTILSANSYCRTVIPGATWDCIHCDATEDLKIIKTWSTLIYDTNAMVARGDSEKTIYIVFRGSSSIRNWIADLTFVPVSYPPVSGTKVHKGFLDSYGEVQNELVATVLDQFKQYPSYKVAVTGHSLGGATALLCALDLYQREEGLSSSNLFLYTQGQPRVGDPAFANYVVSTGIPYRRTVNERDIVPHLPPAAFGFLHAGEEYWITDNSPITVQVCTSDLETSDCSNSIVPFTSVLDHLSYFGINTGLCT [T112K T116I E324I]: the melting temperature (Tm) amounted to 68.1 °C and the “change of melting temperature, mutant” value is 9.4 °C.
